The target of one test is IL-15R β protein (UniProt P14784). The test can be described thus: BLI (Octet-RED), IL-15Rβ immobilized on Ni-NTA biosensors, serial dilutions of the complex as analyte, global 1:1 fit.
For the next test, the target named is FL115-WT (Homo sapiens (Human), UniProt P40933 49-162). Described as above. As for the experimental part:
The binding activity of an agonistic interleukin 15 complex to the receptor IL-15R β was assayed using an Octet-RED (Pall ForteBio) Bio-Layer Interferometry (BLI) instrument. […] 6.2 (2022): e2100966, PMID: 35174992). The baseline was established in kinetics buffer and loaded biosensors were dipped into wells containing serial dilutions of an agonistic interleukin 15 complex for 300 s. FL115 (also named FL115-V2), an agonistic interleukin 15 complex according to an embodiment of the application, contains a monomeric IL-15 receptor αSu/Fc fusion protein having the amino acid sequence of SEQ ID NO: 2 and a mutant IL15 having the amino acid sequence of SEQ ID NO: 3. FL115-WT, another agonistic interleukin 15 complex according to an embodiment of the application, contains a monomeric IL-15 receptor αSu/Fc fusion protein having the amino acid sequence of SEQ ID NO: 2 and the wild-type IL15 having the amino acid sequence of SEQ ID NO: 4. The agonistic interleukin 15 complex was bound to the immobilized IL-15R β protein. The binding complexes of the IL-15R β protein-agonistic IL15 complex were then allowed to dissociate in kinetics buffer. Global data fitting to a 1:1 binding model was used to estimate the affinity using Data Analysis software version 8.1.

Sequence of FL115-WT (chain, as listed by the source limits assumed, chain 1 of 2): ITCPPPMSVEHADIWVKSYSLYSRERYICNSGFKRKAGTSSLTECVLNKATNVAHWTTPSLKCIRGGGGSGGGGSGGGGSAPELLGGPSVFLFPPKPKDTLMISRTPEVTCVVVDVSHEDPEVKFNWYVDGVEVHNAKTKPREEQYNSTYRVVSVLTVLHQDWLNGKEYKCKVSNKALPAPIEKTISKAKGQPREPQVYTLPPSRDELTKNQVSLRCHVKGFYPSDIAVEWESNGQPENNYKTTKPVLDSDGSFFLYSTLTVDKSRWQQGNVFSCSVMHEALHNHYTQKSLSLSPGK
Sequence of FL115-WT (P40933 49-162 limits assumed, chain 2 of 2): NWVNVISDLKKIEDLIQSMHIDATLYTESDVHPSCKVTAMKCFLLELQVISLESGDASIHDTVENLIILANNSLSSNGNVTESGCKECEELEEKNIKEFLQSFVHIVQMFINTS

Regarding ALT 803 (Fc fusion), in the test with IL-15R β protein, the Kd (commonly the equilibrium constant for the complex coming apart) came to 3.9 nM; the koff – broadly, a measure of how fast the partners let go of each other – is 0.000235 s⁻¹; the kon (commonly a measure of how fast the partners come together) stood at 60400 M⁻¹ s⁻¹.

B1: IL-15R β protein (receptor, UniProt P14784 27-239, looked up)
chain: AVNGTSQFTCFYNSRANISCVWSQDGALQDTSCQVHAWPDRRRWNQTCELLPVSQASWACNLILGAPDSQKLTTVDIVTLRVLCREGVRWRVMAIQDFKPFENLRLMAPISLQVVHVETHRCNISWEISQASHYFERHLEFEARTLSPGHTWEEAPLLTLKQKQEWICLETLTPDTQYEFQVRVKPLQGEFTTWSPWSQPLAFRTKPAALGKD
notes: also called IL-15 receptor β; IL-2/IL-15 receptor beta
For B1, in the test with FL115-WT, the Kd was determined as 62.7 nM, the koff amounted to 0.00108 s⁻¹ and the kon is 17200 M⁻¹ s⁻¹.

The values above are taken from US20260242444A1 (SUZHOU FORLONG BIOTECHNOLOGY, published 2026).
